Six sequences from the supplement of paper PMC5998384 can be followed below.

Series [1] deals with HeLa Kyoto. The series is described as follows: solubility change mitosis vs G1/S (difference of NP-40 vs SDS log2 ratios) (log2 ratio difference); higher = more soluble in mitosis.
For series [2], the system named is HeLa Kyoto. Briefly: thermal stability score vs G1/S (z-score of summed log2 fold changes over temperatures); higher = more thermally stable than in G1/S.
For series [3], the system named is HeLa Kyoto. The series is described as follows: melting temperature (median over replicates), in situ; higher = more thermally stable.
Series [4] relates to HeLa Kyoto. The series is described as follows: solubility in G1/S (NP-40 vs SDS abundance) (log2 ratio); higher = more soluble. Conditions: cell cycle stage: G1/S.
Where [5] appears, read: cell cycle stage: early G1 (4.5 h after nocodazole release).
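For melting temperature (median over replicates), in situ in this document: HeLa Kyoto cells synchronized by double thymidine or nocodazole block, proteins quantified by TMT10plex mass spectrometry, three independent biological replicates.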
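For solubility change mitosis vs G1/S (difference of NP-40 vs SDS log2 ratios) in this document: synchronized HeLa Kyoto cells (double thymidine block for G1/S, nocodazole release for mitosis), protein amounts in NP-40 versus SDS lysates quantified by mass spectrometry, three biological replicates.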
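For solubility in G1/S (NP-40 vs SDS abundance) in this document: HeLa Kyoto cells arrested at G1/S by double thymidine block, proteins quantified by TMT10plex mass spectrometry in mild NP-40 versus SDS extracts, three biological replicates.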
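For thermal stability score vs G1/S (z-score of summed log2 fold changes over temperatures) in this document: synchronized HeLa Kyoto cells, proteins quantified by TMT10plex mass spectrometry, three biological replicates, mitosis taken 0.5 h after nocodazole release, G1/S directly after double thymidine block.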

As to “MVGQMYCYPGSHLARALTRALALALVLALLVGPFLSGLAGAIPAPGGRWARDGQVPPASRSRSVLLDVSAGQLLMVDGRHPDAVAWANLTNAIRETGWAFLELGTSGQYNDSLQAYAAGVVEAAVSEELIYMHWMNTVVNYCGPFEYEVGYCERLKSFLEANLEWMQEEMESNPDSPYWHQVRLTLLQLKGLEDSYEGRVSFPAGKFTIKPLGFLLLQLSGDLEDLELALNKTKIKPSLGSGSCSALIKLLPGQSDLLVAHNTWNNYQHMLRVIKKYWLQFREGPWGDYPLVPGNKLVFSSYPGTIFSCDDFYILGSGLVTLETTIGNKNPALWKYVRPRGCVLEWVRNIVANRLASDGATWADIFKRFNSGTYNNQWMIVDYKAFIPGGPSPGSRVLTILEQIPGMVVVADKTSELYQKTYWASYNIPSFETVFNASGLQALVAQYGDWFSYDGSPRAQIFRRNQSLVQDMDSMVRLMRYNDFLHDPLSLCKACNPQPNGENAISARSDLNPANGSYPFQALRQRSHGGIDVKVTSMSLARILSLLAASGPTWDQVPPFQWSTSPFSGLLHMGQPDLWKFAPVKVSWD [PLBD2]”, the “solubility change mitosis (log2)” value with HeLa Kyoto [1] was -0.0289. The thermal stability score is -1.75 in the series on HeLa Kyoto [2] (setting [5]) and -1.5 in the series with HeLa Kyoto [2] (cell cycle stage: mitosis). For the same sequence, the melting temperature in the series with HeLa Kyoto [3] (cell cycle stage: G1/S) came out at 56.6 °C; with HeLa Kyoto [3] (cell cycle stage: mitosis), 55.9 °C. The “solubility in G1/S (log2)” value in the series with HeLa Kyoto [4] is 0.298.
For “MVGSALRRGAHAYVYLVSKASHISRGHQHQAWGSRPPAAECATQRAPGSVVELLGKSYPQDDHSNLTRKVLTRVGRNLHNQQHHPLWLIKERVKEHFYKQYVGRFGTPLFSVYDNLSPVVTTWQNFDSLLIPADHPSRKKGDNYYLNRTHMLRAHTSAHQWDLLHAGLDAFLVVGDVYRRDQIDSQHYPIFHQLEAVRLFSKHELFAGIKDGESLQLFEQSSRSAHKQETHTMEAVKLVEFDLKQTLTRLMAHLFGDELEIRWVDCYFPFTHPSFEMEINFHGEWLEVLGCGVMEQQLVNSAGAQDRIGWAFGLGLERLAMILYDIPDIRLFWCEDERFLKQFCVSNINQKVKFQPLSKYPAVINDISFWLPSENYAENDFYDLVRTIGGDLVEKVDLIDKFVHPKTHKTSHCYRITYRHMERTLSQREVRHIHQALQEAAVQLLGVEGRF [FARS2]”, the “solubility change mitosis (log2)” value with HeLa Kyoto [1] was -0.0528. In addition, the thermal stability score in the series on HeLa Kyoto [2] (setting [5]) stood at 0.911; in the series on HeLa Kyoto [2] (cell cycle stage: mitosis), 1.74. Moreover, the melting temperature in the series with HeLa Kyoto [3] (cell cycle stage: G1/S) came out at 49.7 °C; with HeLa Kyoto [3] (cell cycle stage: mitosis), 49.5 °C. In the series with HeLa Kyoto [4], the “solubility in G1/S (log2)” value was -0.187.
As for “MVHIKKGELTQEEKELLEVIGKGTVQEAGTLLSSKNVRVNCLDENGMTPLMHAAYKGKLDMCKLLLRHGADVNCHQHEHGYTALMFAALSGNKDITWVMLEAGAETDVVNSVGRTAAQMAAFVGQHDCVTIINNFFPRERLDYYTKPQGLDKEPKLPPKLAGPLHKIITTTNLHPVKIVMLVNENPLLTEEAALNKCYRVMDLICEKCMKQRDMNEVLAMKMHYISCIFQKCINFLKDGENKLDTLIKSLLKGRASDGFPVYQEKIIRESIRKFPYCEATLLQQLVRSIAPVEIGSDPTAFSVLTQAITGQVGFVDVEFCTTCGEKGASKRCSVCKMVIYCDQTCQKTHWFTHKKICKNLKDIYEKQQLEAAKEKRQEENHGKLDVNSNCVNEEQPEAEVGISQKDSNPEDSGEGKKESLESEAELEGLQDAPAGPQVSEE [ANKMY2]”, in the series on HeLa Kyoto [1], the “solubility change mitosis (log2)” value is -0.16. In addition, the thermal stability score was -0.173 in the series on HeLa Kyoto [2] (setting [5]) and -0.528 in the series with HeLa Kyoto [2] (cell cycle stage: mitosis). The sequence also displayed a melting temperature in the series on HeLa Kyoto [3] (cell cycle stage: G1/S) of 50.1 °C. For the same sequence, the “solubility in G1/S (log2)” value in the series with HeLa Kyoto [4] is 0.124.
In the case of “MVKEQFRETDVAKKISHICFGMKSPEEMRQQAHIQVVSKNLYSQDNQHAPLLYGVLDHRMGTSEKDRPCETCGKNLADCLGHYGYIDLELPCFHVGYFRAVIGILQMICKTCCHIMLSQEEKKQFLDYLKRPGLTYLQKRGLKKKISDKCRKKNICHHCGAFNGTVKKCGLLKIIHEKYKTNKKVVDPIVSNFLQSFETAIEHNKEVEPLLGRAQENLNPLVVLNLFKRIPAEDVPLLLMNPEAGKPSDLILTRLLVPPLCIRPSVVSDLKSGTNEDDLTMKLTEIIFLNDVIKKHRISGAKTQMIMEDWDFLQLQCALYINSELSGIPLNMAPKKWTRGFVQRLKGKQGRFRGNLSGKRVDFSGRTVISPDPNLRIDEVAVPVHVAKILTFPEKVNKANINFLRKLVQNGPEVHPGANFIQQRHTQMKRFLKYGNREKMAQELKYGDIVERHLIDGDVVLFNRQPSLHKLSIMAHLARVKPHRTFRFNECVCTPYNADFDGDEMNLHLPQTEEAKAEALVLMGTKANLVTPRNGEPLIAAIQDFLTGAYLLTLKDTFFDRAKACQIIASILVGKDEKIKVRLPPPTILKPVTLWTGKQIFSVILRPSDDNPVRANLRTKGKQYCGKGEDLCANDSYVTIQNSELMSGSMDKGTLGSGSKNNIFYILLRDWGQNEAADAMSRLARLAPVYLSNRGFSIGIGDVTPGQGLLKAKYELLNAGYKKCDEYIEALNTGKLQQQPGCTAEETLEALILKELSVIRDHAGSACLRELDKSNSPLTMALCGSKGSFINISQMIACVGQQAISGSRVPDGFENRSLPHFEKHSKLPAAKGFVANSFYSGLTPTEFFFHTMAGREGLVDTAVKTAETGYMQRRLVKSLEDLCSQYDLTVRSSTGDIIQFIYGGDGLDPAAMEGKDEPLEFKRVLDNIKAVFPCPSEPALSKNELILTTESIMKKSEFLCCQDSFLQEIKKFIKGVSEKIKKTRDKYGINDNGTTEPRVLYQLDRITPTQVEKFLETCRDKYMRAQMEPGSAVGALCAQSIGEPGTQMTLKTFHFAGVASMNITLGVPRIKEIINASKAISTPIITAQLDKDDDADYARLVKGRIEKTLLGEISEYIEEVFLPDDCFILVKLSLERIRLLRLEVNAETVRYSICTSKLRVKPGDVAVHGEAVVCVTPRENSKSSMYYVLQFLKEDLPKVVVQGIPEVSRAVIHIDEQSGKEKYKLLVEGDNLRAVMATHGVKGTRTTSNNTYEVEKTLGIEAARTTIINEIQYTMVNHGMSIDRRHVMLLSDLMTYKGEVLGITRFGLAKMKESVLMLASFEKTADHLFDAAYFGQKDSVCGVSECIIMGIPMNIGTGLFKLLHKADRDPNPPKRPLIFDTNEFHIPLVT [POLR3A]”, the “solubility change mitosis (log2)” value in the series with HeLa Kyoto [1] is -0.101. Also, the thermal stability score was 0.905 in the series with HeLa Kyoto [2] (setting [5]) and 2.38 in the series with HeLa Kyoto [2] (cell cycle stage: mitosis). In addition, the melting temperature was 49.1 °C in the series with HeLa Kyoto [3] (cell cycle stage: G1/S) and 49.9 °C in the series with HeLa Kyoto [3] (cell cycle stage: mitosis). Moreover, the “solubility in G1/S (log2)” value in the series on HeLa Kyoto [4] is -0.268.
For the sequence “MVKIVTVKTQAYQDQKPGTSGLRKRVKVFQSSANYAENFIQSIISTVEPAQRQEATLVVGGDGRFYMKEAIQLIARIAAANGIGRLVIGQNGILSTPAVSCIIRKIKAIGGIILTASHNPGGPNGDFGIKFNISNGGPAPEAITDKIFQISKTIEEYAVCPDLKVDLGVLGKQQFDLENKFKPFTVEIVDSVEAYATMLRSIFDFSALKELLSGPNRLKIRIDAMHGVVGPYVKKILCEELGAPANSAVNCVPLEDFGGHHPDPNLTYAADLVETMKSGEHDFGAAFDGDGDRNMILGKHGFFVNPSDSVAVIAANIFSIPYFQQTGVRGFARSMPTSGALDRVASATKIALYETPTGWKFFGNLMDASKLSLCGEESFGTGSDHIREKDGLWAVLAWLSILATRKQSVEDILKDHWQKYGRNFFTRYDYEEVEAEGANKMMKDLEALMFDRSFVGKQFSANDKVYTVEKADNFEYSDPVDGSISRNQGLRLIFTDGSRIVFRLSGTGSAGATIRLYIDSYEKDVAKINQDPQVMLAPLISIALKVSQLQERTGRTAPTVIT [PGM1]”, the “solubility change mitosis (log2)” value with HeLa Kyoto [1] was -0.0698. For the same sequence, the thermal stability score with HeLa Kyoto [2] (setting [5]) was -0.26; in the series with HeLa Kyoto [2] (cell cycle stage: mitosis), 0.494. Further, the melting temperature in the series with HeLa Kyoto [3] (cell cycle stage: G1/S) was found to be 57.6 °C; in the series on HeLa Kyoto [3] (cell cycle stage: mitosis), 58.3 °C. Besides, in the series on HeLa Kyoto [4], the “solubility in G1/S (log2)” value was determined as 0.266.
As to “MVLESTMVCVDNSEYMRNGDFLPTRLQAQQDAVNIVCHSKTRSNPENNVGLITLANDCEVLTTLTPDTGRILSKLHTVQPKGKITFCTGIRVAHLALKHRQGKNHKMRIIAFVGSPVEDNEKDLVKLAKRLKKEKVNVDIINFGEEEVNTEKLTAFVNTLNGKDGTGSHLVTVPPGPSLADALISSPILAGEGGAMLGLGASDFEFGVDPSADPELALALRVSMEEQRQRQEEEARRAAAASAAEAGIATTGTEDSDDALLKMTISQQEFGRTGLPDLSSMTEEEQIAYAMQMSLQGAEFGQAESADIDASSAMDTSEPAKEEDDYDVMQDPEFLQSVLENLPGVDPNNEAIRNAMGSLASQATKDGKKDKKEEDKK [PSMD4]”, the “solubility change mitosis (log2)” value in the series with HeLa Kyoto [1] was -0.0985. In addition, the thermal stability score in the series with HeLa Kyoto [2] (setting [5]) is -0.808; in the series with HeLa Kyoto [2] (cell cycle stage: mitosis), -1.22. The results for the melting temperature with HeLa Kyoto [3] (cell cycle stage: G1/S) and with HeLa Kyoto [3] (cell cycle stage: mitosis) were 53.3 °C and 53.9 °C, respectively. The “solubility in G1/S (log2)” value in the series on HeLa Kyoto [4] stood at 0.287.
